The test system of the data set is MS2 coat protein. The experiment in a line: apparent KD of MS2 coat protein; designed switch direction (-1 OFF switch, 1 ON switch): -1; higher = weaker reporter binding. In outline: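 Stalled E. coli RNA polymerase transcribed designed RNA switches on Illumina chips, which were then titrated with SNAP-549-labelled MS2 coat protein, doubling from 0.7 or 1.5 nM to 3 µM. Steps lasted from 0.8–1.5 h at the lowest concentration to 10–20 min at the highest. The apparent KD is each design's median over clusters of curve-fitted normalised fluorescence.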

Where [1] appears, read: input ligand: microRNA oligo, concentration not stated.
Setting [2] is: Eterna round: R95, input ligand: FMN 200 uM.
[3] abbreviates: Eterna round: R95, input ligand: microRNA oligo, concentration not stated.
Where [4] appears, read: Eterna round: R95, input ligand: none.

“UUGUUGUAUGUAGGAUAUGCAUAUUAUUAUUAUGCAGAAGGACAUGAGGAUCACCCAUGUAUAUUAUUAUUAUAUAUUAUAUAU [Title] (Eterna round: R96, puzzle: Exclusion NG 1)”: the “apparent KD of MS2 coat protein” value under setting [1] was found to be 23.5 nM.
“AAGAAACAUGAGGAUCACCCAUGUGAGGAUAUGACUAAGAAAAGAAAAGAAAGAAGACUCAGAAGGCACAAAGG [salish99-ex1_r3_075] (puzzle: Exclusion 1)”: the “apparent KD of MS2 coat protein” value runs as follows: under setting [2], 68.9 nM; under setting [3], 54.5 nM; under setting [4], 46.8 nM.
As for “UACAGUCAUCCUUGUUGUUACAUGAGGAUCACCCAUGUUAGUAUAGUUAAGUUAUGUGAGUUUGUUGUUCGUUUUAU [JR_STOV1_v2_Sub077] (Eterna round: R97, puzzle: Sensor, turn-off variant 1)”, the “apparent KD of MS2 coat protein” value worked out at 149 nM (input ligand: FMN 200 uM) and 169 nM (input ligand: none).
For “GGACCGAUAGGAUAUGUCGUUGCAUACAUGAGGAUCACCCAUGUGAACCCUUGGUGAACUGCAGAAGGAUUGCGCA [Eternabot (L1) Solution 41] (Eterna round: R97, puzzle: Exclusion 5)”, in that order: 240 nM and 221 nM.
For “GCCUUAUCCGUCAGGAUAUACAGCCGCUCCCUGUUGUAGAAGGGACAUGAGGAUCACCCAUGUACGUACCAUUG [alecazam6] (Eterna round: R97, puzzle: Brourd's mod of Exclusion 4)” the same measures were 31.8 nM and 39.1 nM.
For “CCGCCUGGAUAGGAUAUAGAGCUUUGAGAGGUCCUAGAAGGGUCCACAUGAGGAUCACCCAUGUCACAAUAUCG [Eternabot (L1) Solution 71] (Eterna round: R97, puzzle: Exclusion 6)”, in that order: 28 nM and 29.6 nM.
Regarding “GGUGGACAUGAGGAUCACCCAUGUGAGGAUAUCGGCUGUCUACUCGCUGACGGCUGCUCGAGAAGGCGCAUUGU [Exclusion 1 V89] (puzzle: Exclusion 1)”, the “apparent KD of MS2 coat protein” value under setting [3] was 38.6 nM.
Consider “CCGGAAAUGAAGGAUAUAGGUGUCGAUAGACUCCUAGAAGGUCAUACAUGAGGAUCACCCAUGUGUCCUACCGG [Fiskers Ex 6 - 76] (Eterna round: R96, puzzle: Exclusion 6)”, for which the “apparent KD of MS2 coat protein” value was 36.7 nM (input ligand: FMN 200 uM), 13.3 nM under setting [1] and 18 nM (input ligand: none).
“CGGUGUAACAGAGGAUAUCAGCGCAACUGACGAUGAGAAGGCUGACAUGAGGAUCACCCAUGUGAUUUCUCAAUAUUAUACAUC [Prohibition 88 - Jieux - Exclusion NG 1] (Eterna round: R96, puzzle: Exclusion NG 1)”: the “apparent KD of MS2 coat protein” value (input ligand: FMN 200 uM) came to 371 nM, the “apparent KD of MS2 coat protein” value under setting [1] came to 72.3 nM and the “apparent KD of MS2 coat protein” value (input ligand: none) came to 100 nM.
“AUAAUAAAGGAGGAUAUCGAUUCGGAAACGAAUCGAGAAGGUCUAACAUGAGGAUCACCCAUGUUCCUCAAAUA [Mat - Exclusion 6 - Eli Mod - D51] (puzzle: Exclusion 6)”: the “apparent KD of MS2 coat protein” value under setting [2] amounted to 58 nM, the “apparent KD of MS2 coat protein” value under setting [3] turned out to be 35.6 nM and the “apparent KD of MS2 coat protein” value under setting [4] amounted to 27.9 nM.
In the case of “GGUUGGCGAGGAUAUACAUGAGGAUCACCCAUGUGAGAGAAAAAAGUGAGGAAGAAAAGUAGAAGGCGCUGACG [salish99-ex3-14] (Eterna round: R96, puzzle: Exclusion 3)”, the “apparent KD of MS2 coat protein” value reads like this: (input ligand: FMN 200 uM) 354 nM; under setting [1], 105 nM; (input ligand: none) 84 nM.
For “CUAGCGAUUGUAGGAUAUCGGACUGUUUCAGUCUGAGAAGGACAUGAGGAUCACCCAUGUGAACCAACGUGAGUUGGACGCUAG [JL ENG1 3.82] (Eterna round: R96, puzzle: Exclusion NG 1)” the same measures were 51.1 nM, 12.5 nM and 19.4 nM.
With “AACAAGCAAGGAUAUACCGGAGGUGUGUCCUCACCUAAGGGACUUGAGGAUCACCCAAGUAGAAGGUGCAACAA [Raxela] (Eterna round: R97, puzzle: Exclusion 2)”, the “apparent KD of MS2 coat protein” value runs as follows: (input ligand: FMN 200 uM) 41.5 nM; (input ligand: none) 141 nM.
With “CACCUGAAGAGAGGAUAUCAUACAUGAGGAUCACCCAUGUAAUAAAUGAGAAUUUCGAAUGUAAUUGAGAAGGCUCGAUAAGGC [Ostricism 92 - Jieux - Exclusion NG 2] (Eterna round: R96, puzzle: Exclusion NG 2)”, the “apparent KD of MS2 coat protein” value stood at 109 nM (input ligand: FMN 200 uM), 54.9 nM under setting [1] and 59 nM (input ligand: none).
As for “GUAGAGUAAGGAUAUGUAGAAUAGGAUAGAAUGGUUAGAAUGCAGAAGGUACAUGAGGAUCACCCAUGUAAUGU [Excluse me!!!! 5 - Jieux - Exclusion 4] (puzzle: Exclusion 4)”, under setting [3], the “apparent KD of MS2 coat protein” value stood at 21.2 nM.

(Values after the supplement of paper PMC9170038.)
